Target: T1, FcγRIa (human, UniProt P12314 16-292)
T1 construct: extracellular domain; soluble His-tagged extracellular domain expressed in FreeStyle293 cells, used as analyte in Biacore; also called FcgRI; CD64
Assay: SPR (Biacore), captured antibody, FcγRIa analyte; relative to GpH7-A5/GpH7-B3/GpL16-k0

T1 sequence (P12314 16-292): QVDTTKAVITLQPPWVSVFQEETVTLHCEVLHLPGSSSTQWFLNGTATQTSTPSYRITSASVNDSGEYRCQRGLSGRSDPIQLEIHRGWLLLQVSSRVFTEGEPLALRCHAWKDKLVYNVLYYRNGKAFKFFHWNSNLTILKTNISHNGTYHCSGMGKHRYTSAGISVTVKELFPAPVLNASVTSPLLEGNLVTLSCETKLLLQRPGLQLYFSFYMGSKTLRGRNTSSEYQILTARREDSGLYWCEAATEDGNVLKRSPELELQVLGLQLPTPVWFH

B1: GpH7-A5/GpH7-B3 variant I336_11K/GpL16-k0 (antibody, human IgG1, kappa)
heavy 1: not shown
heavy 2: not shown
light: DIVMTQSPLSLPVTPGEPASISCQASESLVHSNRNTYLHWYLQKPGQSPQLLIYKVSNRFSGVPDRFSGSGSGTDFTLKISRVEAEDVGVYYCSQNTHVPPTFGQGTKVEIERTVAAPSVFIFPPSDEQLKSGTASVVCLLNNFYPREAKVQWKVDNALQSGNSQESVTEQDSKDSTYSLSSTLTLSKADYEKHKVYACEVTHQGLSSPVTKSFNRGEC
notes: heterodimerized IgG1, mutation in one H chain only; also called He Ab
B1 was tested, and the He/Con_1a was 105 relative, control = 100.

B2: GpH7-A5/GpH7-B3 variant D265_10E/GpL16-k0 (antibody, human IgG1, kappa)
heavy 1: not shown
heavy 2: not shown
light: DIVMTQSPLSLPVTPGEPASISCQASESLVHSNRNTYLHWYLQKPGQSPQLLIYKVSNRFSGVPDRFSGSGSGTDFTLKISRVEAEDVGVYYCSQNTHVPPTFGQGTKVEIERTVAAPSVFIFPPSDEQLKSGTASVVCLLNNFYPREAKVQWKVDNALQSGNSQESVTEQDSKDSTYSLSSTLTLSKADYEKHKVYACEVTHQGLSSPVTKSFNRGEC
notes: as for B1
With B2 the He/Con_1a was 101 relative, control = 100.

B3: GpH7-A5/GpH7-B3 variant A330_19Q/GpL16-k0 (antibody, human IgG1, kappa)
heavy 1: not shown
heavy 2: not shown
light: DIVMTQSPLSLPVTPGEPASISCQASESLVHSNRNTYLHWYLQKPGQSPQLLIYKVSNRFSGVPDRFSGSGSGTDFTLKISRVEAEDVGVYYCSQNTHVPPTFGQGTKVEIERTVAAPSVFIFPPSDEQLKSGTASVVCLLNNFYPREAKVQWKVDNALQSGNSQESVTEQDSKDSTYSLSSTLTLSKADYEKHKVYACEVTHQGLSSPVTKSFNRGEC
notes: as for B1
With B3 the He/Con_1a was 105 relative, control = 100.

B4: GpH7-A5/GpH7-B3 variant I336_09D/GpL16-k0 (antibody, human IgG1, kappa)
heavy 1: not shown
heavy 2: not shown
light: DIVMTQSPLSLPVTPGEPASISCQASESLVHSNRNTYLHWYLQKPGQSPQLLIYKVSNRFSGVPDRFSGSGSGTDFTLKISRVEAEDVGVYYCSQNTHVPPTFGQGTKVEIERTVAAPSVFIFPPSDEQLKSGTASVVCLLNNFYPREAKVQWKVDNALQSGNSQESVTEQDSKDSTYSLSSTLTLSKADYEKHKVYACEVTHQGLSSPVTKSFNRGEC
notes: as for B1
B4 was tested, and the He/Con_1a was 104 relative, control = 100.

B5: GpH7-A5/GpH7-B3 variant A330_20W/GpL16-k0 (antibody, human IgG1, kappa)
heavy 1: not shown
heavy 2: not shown
light: DIVMTQSPLSLPVTPGEPASISCQASESLVHSNRNTYLHWYLQKPGQSPQLLIYKVSNRFSGVPDRFSGSGSGTDFTLKISRVEAEDVGVYYCSQNTHVPPTFGQGTKVEIERTVAAPSVFIFPPSDEQLKSGTASVVCLLNNFYPREAKVQWKVDNALQSGNSQESVTEQDSKDSTYSLSSTLTLSKADYEKHKVYACEVTHQGLSSPVTKSFNRGEC
notes: as for B1
B5 was tested, and the He/Con_1a was 108 relative, control = 100.

B6: GpH7-A5/GpH7-B3 variant I336_13S/GpL16-k0 (antibody, human IgG1, kappa)
heavy 1: not shown
heavy 2: not shown
light: DIVMTQSPLSLPVTPGEPASISCQASESLVHSNRNTYLHWYLQKPGQSPQLLIYKVSNRFSGVPDRFSGSGSGTDFTLKISRVEAEDVGVYYCSQNTHVPPTFGQGTKVEIERTVAAPSVFIFPPSDEQLKSGTASVVCLLNNFYPREAKVQWKVDNALQSGNSQESVTEQDSKDSTYSLSSTLTLSKADYEKHKVYACEVTHQGLSSPVTKSFNRGEC
notes: as for B1
With B6 the He/Con_1a was 102 relative, control = 100.

B7: GpH7-A5/GpH7-B3 variant I336_14T/GpL16-k0 (antibody, human IgG1, kappa)
heavy 1: not shown
heavy 2: not shown
light: DIVMTQSPLSLPVTPGEPASISCQASESLVHSNRNTYLHWYLQKPGQSPQLLIYKVSNRFSGVPDRFSGSGSGTDFTLKISRVEAEDVGVYYCSQNTHVPPTFGQGTKVEIERTVAAPSVFIFPPSDEQLKSGTASVVCLLNNFYPREAKVQWKVDNALQSGNSQESVTEQDSKDSTYSLSSTLTLSKADYEKHKVYACEVTHQGLSSPVTKSFNRGEC
notes: as for B1
B7 was tested, and the He/Con_1a was 104 relative, control = 100.

B8: GpH7-A5/GpH7-B3 variant S337_08L/GpL16-k0 (antibody, human IgG1, kappa)
heavy 1: not shown
heavy 2: not shown
light: DIVMTQSPLSLPVTPGEPASISCQASESLVHSNRNTYLHWYLQKPGQSPQLLIYKVSNRFSGVPDRFSGSGSGTDFTLKISRVEAEDVGVYYCSQNTHVPPTFGQGTKVEIERTVAAPSVFIFPPSDEQLKSGTASVVCLLNNFYPREAKVQWKVDNALQSGNSQESVTEQDSKDSTYSLSSTLTLSKADYEKHKVYACEVTHQGLSSPVTKSFNRGEC
notes: as for B1
With B8 the He/Con_1a was 105 relative, control = 100.

B9: GpH7-A5/GpH7-B3 variant A330_10E/GpL16-k0 (antibody, human IgG1, kappa)
heavy 1: not shown
heavy 2: not shown
light: DIVMTQSPLSLPVTPGEPASISCQASESLVHSNRNTYLHWYLQKPGQSPQLLIYKVSNRFSGVPDRFSGSGSGTDFTLKISRVEAEDVGVYYCSQNTHVPPTFGQGTKVEIERTVAAPSVFIFPPSDEQLKSGTASVVCLLNNFYPREAKVQWKVDNALQSGNSQESVTEQDSKDSTYSLSSTLTLSKADYEKHKVYACEVTHQGLSSPVTKSFNRGEC
notes: as for B1
B9 was tested, and the He/Con_1a was 107 relative, control = 100.

B10: GpH7-A5/GpH7-B3 variant S337_04F/GpL16-k0 (antibody, human IgG1, kappa)
heavy 1: not shown
heavy 2: not shown
light: DIVMTQSPLSLPVTPGEPASISCQASESLVHSNRNTYLHWYLQKPGQSPQLLIYKVSNRFSGVPDRFSGSGSGTDFTLKISRVEAEDVGVYYCSQNTHVPPTFGQGTKVEIERTVAAPSVFIFPPSDEQLKSGTASVVCLLNNFYPREAKVQWKVDNALQSGNSQESVTEQDSKDSTYSLSSTLTLSKADYEKHKVYACEVTHQGLSSPVTKSFNRGEC
notes: as for B1
B10 was tested, and the He/Con_1a was 106 relative, control = 100.

B11: GpH7-A5/GpH7-B3 variant H268_13S/GpL16-k0 (antibody, human IgG1, kappa)
heavy 1: not shown
heavy 2: not shown
light: DIVMTQSPLSLPVTPGEPASISCQASESLVHSNRNTYLHWYLQKPGQSPQLLIYKVSNRFSGVPDRFSGSGSGTDFTLKISRVEAEDVGVYYCSQNTHVPPTFGQGTKVEIERTVAAPSVFIFPPSDEQLKSGTASVVCLLNNFYPREAKVQWKVDNALQSGNSQESVTEQDSKDSTYSLSSTLTLSKADYEKHKVYACEVTHQGLSSPVTKSFNRGEC
notes: as for B1
In the case of B11, the He/Con_1a is reported as 109 relative, control = 100.

— patent US20150344570A1 (published 2015)
